Results on one substance are retold here after PMC2714540.

This test has as its target Smurf1 (UniProt Q9HCE7). Put plainly: binding to Smurf1, pull-down format inferred. To be noted: reference: Tal210-605 wild type; sites S425.

Consider “talin (talin head, TH) 210-605 (from UniProt P26039) Tal210-605 S425A”, for which the “binding against the reference” value is given as “stronger”.
